Like-named read-outs stand apart in the source and are kept apart here. Blank lines part the entries; values can stand above or below the binder they belong to.
What was measured:
GST-PUB30 [1] = molecular target: T1, GST-PUB30 (Arabidopsis thaliana, UniProt Q058P4 1-448); test: BLI
T1 chain: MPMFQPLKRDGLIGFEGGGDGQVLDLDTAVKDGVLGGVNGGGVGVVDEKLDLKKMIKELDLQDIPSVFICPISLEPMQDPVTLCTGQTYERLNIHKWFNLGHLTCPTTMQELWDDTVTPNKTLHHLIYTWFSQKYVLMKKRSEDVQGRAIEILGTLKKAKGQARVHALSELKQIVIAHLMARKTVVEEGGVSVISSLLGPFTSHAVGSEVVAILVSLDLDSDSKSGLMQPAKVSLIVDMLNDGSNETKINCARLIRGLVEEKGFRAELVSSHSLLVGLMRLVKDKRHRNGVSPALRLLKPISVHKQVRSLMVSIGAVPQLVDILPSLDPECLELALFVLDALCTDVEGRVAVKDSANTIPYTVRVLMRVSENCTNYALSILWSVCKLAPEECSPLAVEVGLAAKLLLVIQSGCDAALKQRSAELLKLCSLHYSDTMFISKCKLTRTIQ

GST-PUB31 [2] = molecular target: T2, GST-PUB31 (Arabidopsis thaliana, UniProt Q9FHN9 1-444); test: BLI
T2 chain: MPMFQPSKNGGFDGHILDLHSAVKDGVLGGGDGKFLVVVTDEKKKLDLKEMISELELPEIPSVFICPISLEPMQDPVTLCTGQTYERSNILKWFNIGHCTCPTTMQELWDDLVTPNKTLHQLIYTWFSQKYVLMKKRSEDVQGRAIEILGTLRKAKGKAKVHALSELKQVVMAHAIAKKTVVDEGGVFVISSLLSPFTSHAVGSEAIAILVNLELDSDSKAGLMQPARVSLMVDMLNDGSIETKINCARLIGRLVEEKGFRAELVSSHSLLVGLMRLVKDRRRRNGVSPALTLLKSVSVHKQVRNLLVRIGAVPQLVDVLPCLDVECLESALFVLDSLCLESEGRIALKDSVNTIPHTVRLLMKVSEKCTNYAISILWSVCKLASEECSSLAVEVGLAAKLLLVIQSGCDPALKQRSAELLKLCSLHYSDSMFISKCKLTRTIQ

GST-PUB30 [3] = molecular target: T1, GST-PUB30; test: BLI
GST-PUB31 [4] = molecular target: T2, GST-PUB31; test: BLI
GST-PUB30 [5] = molecular target: T3, GST-PUB30 (Arabidopsis thaliana, UniProt Q058P4 1-448); test: BLI; Octet Red96; GST-PUB30 or GST-PUB31 loaded on anti-GST probes (2000 nM for ERECTA_CD, 1000 nM for BAK1_CD); ERECTA_CD or BAK1_CD as analyte at seven concentrations; 30 °C; 1x PBS with 0.02 % Tween 20; 1:1 model, steady-state analysis; details: both partners purified
T3 construct: Plant U-box ubiquitin E3 ligase PUB30, Arabidopsis, full length
T3 sequence (looked up): T1 chain

GST-PUB31 [6] = molecular target: T4, GST-PUB31 (Arabidopsis thaliana, UniProt Q9FHN9 1-444); test: as above; details: both partners purified
T4 construct: Plant U-box ubiquitin E3 ligase PUB31, Arabidopsis, full length
T4 sequence (looked up): T2 chain

- Kd (GST-PUB30 [1]): 15 µM
- Kd (GST-PUB31 [2]): 11 µM
B1: MBP-ERECTA_CD (domain or fragment)
chain: CRPHNPPPFLDGSLDKPVTYSTPKLVILHMNMALHVYEDIMRMTENLSEKYIIGHGASSTVYKCVLKNCKPVAIKRLYSHNPQSMKQFETELEMLSSIKHRNLVSLQAYSLSHLGSLLFYDYLENGSLWDLLHGPTKKKTLDWDTRLKIAYGAAQGLAYLHHDCSPRIIHRDVKSSNILLDKDLEARLTDFGIAKSLCVSKSHTSTYVMGTIGYIDPEYARTSRLTEKSDVYSYGIVLLELLTRRKAVDDESNLHHLIMSKTGNNEVMEMADPDITSTCKDLGVVKKVFQLALLCTKRQPNDRPTMHQVTRVLGSFMLSEQPPAATDTSATLAGSCYVDEYANLKTPHSVNCSSMSASDAQLFLRFGQVISQNSE

- Kd (GST-PUB30 [3]): 2.4 µM
- Kd (GST-PUB31 [4]): 2 µM
- fold stronger interaction than ERECTA_CD (GST-PUB30 [5]): ~10 fold
- fold stronger interaction than ERECTA_CD (GST-PUB31 [6]): ~10 fold
B2: MBP-BAK1_CD (domain or fragment, Arabidopsis thaliana, UniProt Q94F62 247-615, looked up)
chain: AWWRRKKPQDHFFDVPAEEDPEVHLGQLKRFSLRELQVASDNFSNKNILGRGGFGKVYKGRLADGTLVAVKRLKEERTQGGELQFQTEVEMISMAVHRNLLRLRGFCMTPTERLLVYPYMANGSVASCLRERPESQPPLDWPKRQRIALGSARGLAYLHDHCDPKIIHRDVKAANILLDEEFEAVVGDFGLAKLMDYKDTHVTTAVRGTIGHIAPEYLSTGKSSEKTDVFGYGVMLLELITGQRAFDLARLANDDDVMLLDWVKGLLKEKKLEALVDVDLQGNYKDEEVEQLIQVALLCTQSSPMERPKMSEVVRMLEGDGLAERWEEWQKEEMFRQDFNYPTHHPAVSGWIIGDSTSQIENEYPSGPR
notes: BRI1-ASSOCIATED RECEPTOR KINASE1 (BAK1/SERK3), Arabidopsis; cytoplasmic domain

Reference: publication doi:10.1101/2022.07.11.499617, “Direct attenuation of Arabidopsis ERECTA signaling by a pair of U-box E3 ligases” (bioRxiv, 2022)
